Values belong to the molecule of their own block, whether it stands above or below them.
Columns and labels:
[1] = target: REV7 (Homo sapiens) (UniProt Q9UI95); details: cited from earlier work
[2] = target: T1, SHLD3 CTD (human, UniProt Q6ZNX1 140-250); assay: fluorescence anisotropy; Kd similar to the Shieldin complex; 20 mM Na-HEPES pH 7.5, 5% glycerol, 100 mM NaCl, 0.5 mM TCEP; 10 nM DNA, 30 min, room temperature; details: protein: recombinant, tags: MBP or GST tag, cleaved (PreScission)
T1 sequence: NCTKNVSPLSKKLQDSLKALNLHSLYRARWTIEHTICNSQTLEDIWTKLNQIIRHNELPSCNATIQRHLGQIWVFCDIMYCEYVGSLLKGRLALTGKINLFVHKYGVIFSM

[3] = target: SHLD3 1-83;SHLD2 1-60;REV7 (human;human;human, UniProt Q6ZNX1;Q86V20-2;Q9UI95 1-83;1-60;1-211, del84-250||); assay: fluorescence anisotropy; 20 mM Na-HEPES pH 7.5, 5% glycerol, 100 mM NaCl, 0.5 mM TCEP; 10 nM DNA, 30 min, room temperature; details: protein: recombinant;recombinant;recombinant; tags: ;;; copies: 1;1;2; label: 5(6)-FAM
[4] = target: T2, SHLD3;SHLD2 1-95;REV7 R124A (human;human;human, UniProt Q6ZNX1;Q86V20-2;Q9UI95 1-250;1-95;1-211, ||R124A); assay: as above; details: protein: recombinant;recombinant;recombinant, tags: tags cleaved (PreScission);GST tag, cleaved (PreScission);tags cleaved (PreScission), copies: 1;1;2
Target sequence in this assay (Q6ZNX1 whole entry, chain 1 of 3): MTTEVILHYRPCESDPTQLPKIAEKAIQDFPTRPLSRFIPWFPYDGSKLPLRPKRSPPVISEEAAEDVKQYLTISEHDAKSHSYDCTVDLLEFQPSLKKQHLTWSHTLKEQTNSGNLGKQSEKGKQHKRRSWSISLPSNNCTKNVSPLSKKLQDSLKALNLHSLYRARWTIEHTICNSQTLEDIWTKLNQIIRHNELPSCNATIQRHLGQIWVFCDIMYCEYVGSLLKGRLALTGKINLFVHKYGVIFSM
Target sequence in this assay (Q86V20 1-95, chain 2 of 3): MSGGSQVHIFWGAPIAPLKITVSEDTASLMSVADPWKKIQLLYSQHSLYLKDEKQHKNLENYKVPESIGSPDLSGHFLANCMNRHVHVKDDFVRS
Target sequence in this assay (Q9UI95 whole entry R124A, chain 3 of 3): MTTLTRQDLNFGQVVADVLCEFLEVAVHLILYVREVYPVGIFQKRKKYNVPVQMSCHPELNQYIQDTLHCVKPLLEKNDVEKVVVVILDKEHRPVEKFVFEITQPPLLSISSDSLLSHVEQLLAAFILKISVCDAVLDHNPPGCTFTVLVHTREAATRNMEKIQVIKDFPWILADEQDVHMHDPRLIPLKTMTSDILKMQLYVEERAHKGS

[5] = target: T3, preformed REV7^ΔN-SHLD3 (human, UniProt Q9UI95 15-211; Q6ZNX1 1-62); assay: SEC; 5 µM preformed REV7^ΔN-SHLD3 with 10 µM MBP-SHLD2^1–60 and MBP-REV7^core, 30 min on ice, Superdex-200 3.2/300 in buffer B; details: both partners purified
T3 construct: REV7 (MAD2L2), human, without the N-terminal 14 residues; as m8; SHLD3, human, residues 1-62; as m16; source: E. coli LOBSTR, purified components, complex formed beforehand; not shown: hexahistidine-MBP or GST, N-terminal, cleaved; GST, N-terminal, kept

[6] = target: T4, pre-formed GST-SHLD3^1–62-REV7 (human, UniProt Q6ZNX1 1-62; Q9UI95 1-211); assay: pull-down; MBP-SHLD2^1–60 as bait, five-minute incubation at 4 °C with REV7 and GST-SHLD3^1–62 or with pre-formed GST-SHLD3^1–62-REV7 and additional REV7; details: both partners purified
T4 construct: SHLD3, human, residues 1-62; as m16; REV7 (MAD2L2), human; as m1; also called GST-SHLD3^1–63-REV7 (methods); pre-formed REV7-SHLD3; source: E. coli LOBSTR, purified components, complex formed beforehand in the absence of SHLD2; not shown: GST, N-terminal, kept; hexahistidine-MBP or GST, N-terminal, cleaved

[7] = target: T2, SHLD3;SHLD2 1-95;REV7 R124A; assay: analytical size-exclusion chromatography co-migration; excess DNA; 20 mM Na-HEPES pH 7.5, 5% glycerol, 100 mM NaCl, 0.5 mM TCEP; 10 nM DNA, 30 min, room temperature; details: protein: recombinant;recombinant;recombinant, tags: tags cleaved (PreScission);GST tag, copies: 1;1;2, label: 5(6)-FAM
Target sequence in this assay (Q9UI95 whole entry R124A, one chain of several): as the sequence (Q9UI95 whole entry R124A, chain 3 of 3) above

[8] = target: T5, REV7^WT (human, UniProt Q9UI95 1-211); assay: SPR; SHLD3^1–62 or REV3^1871–2014 immobilised on SCR HC30M chip by EDC-NHS; REV7 injected in two-fold dilutions; buffer B with 0.05% Tween 20; details: both partners purified
T5 construct: REV7 (MAD2L2), human; The methods say in general that the MBP or GST tag was cleaved with PreScission protease; here the protein is labelled without a tag; also called MAD2L2; wild-type REV7; source: E. coli LOBSTR, purified (metal chelating column, tag cleavage, SEC); not shown: hexahistidine-MBP or GST, N-terminal, cleaved

[9] = target: T6, REV7^R124A (human, UniProt Q9UI95 1-211, R124A); assay: as above; details: both partners purified
T6 construct: REV7 (MAD2L2), human; also called dimerization mutant; source: E. coli LOBSTR, purified (metal chelating column, tag cleavage, SEC); not shown: hexahistidine-MBP or GST, N-terminal, cleaved
T6 sequence (Q9UI95 whole entry R124A): as the sequence (Q9UI95 whole entry R124A, chain 3 of 3) above

[10] = target: REV7^R124A (human, UniProt Q9UI95 1-211, R124A); assay: SPR
[11] = label: 5(6)-FAM on strand 1, blunt

T5 sequence (Q9UI95 whole entry): as the sequence (Q9UI95 whole entry R124A, chain 3 of 3) above, with A124R counted along it
Sequence of SHLD3 1-83;SHLD2 1-60;REV7 (Q9UI95 whole entry, stated change not applied, one chain of several): as the sequence (Q9UI95 whole entry R124A, chain 3 of 3) above, with A124R counted along it
T4 sequence (Q9UI95 whole entry, the tested form may be a part, one chain of several): as the sequence (Q9UI95 whole entry R124A, chain 3 of 3) above, with A124R counted along it
T3 sequence (Q9UI95 15-211, stated change not applied, one chain of several): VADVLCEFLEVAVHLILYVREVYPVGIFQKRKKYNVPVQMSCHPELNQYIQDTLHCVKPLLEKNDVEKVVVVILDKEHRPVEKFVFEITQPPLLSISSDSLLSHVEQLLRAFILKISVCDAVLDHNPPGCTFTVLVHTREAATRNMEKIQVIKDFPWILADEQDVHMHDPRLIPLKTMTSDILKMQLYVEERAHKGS

Molecule: REV7 (from UniProt Q9UI95)
- Kd [1]: 2000 nM

B1: non-telomeric ssDNA (ssDNA)
DNA: AGTGCCAGTGCC
- binding result ([2]; label: 5(6)-FAM): binds
- binding result [3]: no binding
- Kd ([4]; label: 5(6)-FAM): 137 nM

- binding result [5]: binds
- binding result [6]: binds
B2: MBP-SHLD2^1–60 (domain or fragment, human, UniProt Q86V20-2 1-60, looked up)
chain: MSGGSQVHIFWGAPIAPLKITVSEDTASLMSVADPWKKIQLLYSQHSLYLKDEKQHKNLE
notes: SHLD2, human, N-terminal residues 1-60; source: E. coli LOBSTR, purified; not shown: hexahistidine-MBP, N-terminal, kept

B3: 50 nt ssDNA (ssDNA)
DNA: AAGGGGAGCGGGGGAGGATAATAGGAAGGGGAGCGGGGGAGGATAATAGG
- binding result [7]: binds

- binding result [8]: binds
B4: REV3^1871–2014 (domain or fragment, human, UniProt O60673 1871-2014, looked up)
chain: TPRTANILKPLMSPPSREEIMATLLDHDLSETIYQEPFCSNPSDVPEKPREIGGRLLMVETRLANDLAEFEGDFSLEGLRLWKTAFSAMTQNPRPGSPLRSGQGVVNKGSSNSPKMVEDKKIVIMPCKCAPSRQLVQVWLQAKE
notes: REV3, human, residues 1871-2014 (holds RBM1 1875-1896 and RBM2 1991-2012); Named without a tag; the methods say in general that tags were cleaved; source: E. coli LOBSTR, purified; not shown: hexahistidine-MBP or GST, N-terminal, cleaved

- binding result [9]: binds
- Kd [8]: ~50 nM
- Kd [10]: ~67 nM
B5: SHLD3^1–62 (domain or fragment, human, UniProt Q6ZNX1 1-62, looked up)
chain: MTTEVILHYRPCESDPTQLPKIAEKAIQDFPTRPLSRFIPWFPYDGSKLPLRPKRSPPVISE
notes: the methods say in general that tags were cleaved; also called SHLD3^RBM; source: E. coli LOBSTR, purified; not shown: hexahistidine-MBP or GST, N-terminal, cleaved

B6: dsTelo (dsDNA)
DNA 1: TTAGGGTTAGGG
DNA 2: CCCTAACCCTAA
- binding result [2, 11]: binds
- Kd [4, 11]: 180 nM

B7: telomeric ssDNA (ssDNA)
DNA: TTAGGGTTAGGG
- binding result ([2]; label: 5(6)-FAM): binds
- Kd ([4]; label: 5(6)-FAM): 207 nM

B8: non-telomeric dsDNA (dsDNA)
DNA 1: AGTGCCAGTGCC
DNA 2: GGCACTGGCACT
- binding result [2, 11]: binds
- Kd [4, 11]: 166 nM
